From US20260217787A1 (MONSANTO TECHNOLOGY, published 2026)

Assays:
[1] = target: SfABCc2 (Spodoptera frugiperda); assay: cell-based or functional assay
[2] = target: Spodoptera_frugiperda_ABC_transporter (Spodoptera frugiperda); assay: cell-based or functional assay
[3] = target: HzABCa7 (Helicoverpa zea); assay: cell-based or functional assay
[4] = target: SfABCa3 (Spodoptera frugiperda); assay: cell-based or functional assay
Cry3Aa = target: T1, Cry3Aa (Bacillus thuringiensis, UniProt P0A379 1-644); assay: yeast two-hybrid
T1 sequence: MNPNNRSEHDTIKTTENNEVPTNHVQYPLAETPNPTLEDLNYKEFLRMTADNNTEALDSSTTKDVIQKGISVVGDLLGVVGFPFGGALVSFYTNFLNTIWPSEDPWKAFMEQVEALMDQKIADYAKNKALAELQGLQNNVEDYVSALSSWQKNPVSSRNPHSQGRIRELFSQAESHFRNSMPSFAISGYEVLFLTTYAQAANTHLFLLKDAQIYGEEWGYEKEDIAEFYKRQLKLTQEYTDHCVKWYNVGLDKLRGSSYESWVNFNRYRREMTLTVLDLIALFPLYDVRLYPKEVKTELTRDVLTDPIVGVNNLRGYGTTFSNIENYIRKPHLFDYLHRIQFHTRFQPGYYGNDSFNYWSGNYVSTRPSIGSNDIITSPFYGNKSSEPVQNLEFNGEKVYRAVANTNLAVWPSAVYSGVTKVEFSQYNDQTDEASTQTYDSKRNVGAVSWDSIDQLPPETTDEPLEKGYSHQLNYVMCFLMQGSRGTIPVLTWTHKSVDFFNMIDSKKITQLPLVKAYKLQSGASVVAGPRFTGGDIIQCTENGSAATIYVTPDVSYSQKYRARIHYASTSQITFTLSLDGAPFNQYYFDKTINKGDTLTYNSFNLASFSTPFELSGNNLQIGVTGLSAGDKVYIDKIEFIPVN

## Cry1Ac as used in the Sf9 cytotoxicity assays (from UniProt P05068 29-623) (ligand)
[1]
  Sytox Green Fluresence, treatment (control buffer 645): 20700
[2]
  Sytox Green Fluresence, treatment (control buffer 645): 18600

## Cry2Ab as used in the Sf9 cytotoxicity assays (ligand)
[3]
  Sytox Green Fluresence, treatment (control buffer 5398): 55300
[4]
  Sytox Green Fluresence, treatment (control buffer 5398): 30600

B1: Aminopeptidase Fragment 5 (receptor)
chain: GFPVVNAVFNGKNVTFSQKRFLYTGNNNTQWYIPVTYRLSNSSSYETFWLAPNSSVTILNNLTDKDWLIVNDDSRGYYRVKYCKRLTQRIQSLLNQNHTQISELNRAQILDDSLNLARAGYIKYSEAFELLEYLKNETSYFPWFTTIKNMDYLVTRLGANTELGKRTNAMILDLISQISANISTTKWEEIDQVTTLKLQRVWADACKRGQASCISETKRLFQALRLNKTSVNPNIRDVVYCNALRNSNNIAADWEFLWNRLLISIHPQEDLYILLSLGCTTHKPYLTRLLDATINSTSVIKLQNLYTVWNSVGSASKEGLDLAFEYFVNNYKKIIEYYPDGISLLSQLANRFTTNAEVTKLQQFADRLEKNSTIRAVANSALTTARQNLQFRARIEDDLNDYFKIDNSGSSV
notes: Yeast two-hybrid construct; also called Aminopeptidase N fragment 5
Cry3Aa
  binding result: no binding
